Test: yeast display, Sf9 membrane polyspecificity reagent, FACS + sequencing; frameworks hold sequencing errors
How it was run: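 In a synthetic yeast display library (Saccharomyces cerevisiae BJ5465), nanobody expression was induced with galactose for 36–48 hours. FACS gates were set low and high (top ~1%) using anti-HA fluorescence for expression and streptavidin fluorescence for binding of the Sf9 membrane reagent. Each polyreactivity label is drawn from the gate of origin.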

Row | Sequence | polyreactivity (PSR sort gate)
1 | QVQLVESGGGLVQAGGSLRLSCAASGIIFIGNAMGWYRQAPGKERELVAAISSDGDSTYYADSVKGRFTISRDNAKNTVYLQMNSLKPEDTAVYYCAKDYYPDYYGLYLWPFDYWGQGTQVTVSS | high polyreactivity
2 | QVQLVESGGGLVQAGGSLRLSCAATGIIFHRYVMGWYRQAPGKERELVAVITQRGGSTYYADSVKGRFTISRDNAKNTVYLQMNSLKQEDTAVYYCAARSQYRDRTGQYGYWGQGSQVTVSS | high polyreactivity
3 | QLQLVESGGGLVQAGGSLRLSCAASGRIFHSYTMGCYTQAPGKHRELVSAITWSCGSTYYADSVKGRLTISRDHAKNTVYFQMNSLKAEDTSVFYCNAKRRVFRLSVTSAFDYWGQGTQVTVSS | high polyreactivity
4 | QVQLVESGGGLVQAGGSLRLSCAASGITFYDNVMGWYRQAPGKERELVAAITSGGSTNYADSVKGRFTISRDNAKNTVYLQMNSLKPEDTAVYYCAAEGISVTAAQSEWYDYWGQGTQVTVSS | low polyreactivity
5 | QVQLVESGAGLVHAGGSLRLSCAASGNTFIDYAMGWYRQAPGKERELVASITSGGGSTYYADSVKGRFTISRDNEKNTDYLQMNSLKPEDTAVFFFAAERYNSEAIFRSYDYWGQGSQVTVSS | low polyreactivity
6 | QVQLVESGGGLVQAGGSLRLSCAASGFTIRSYVMGWYRQAPGKEREFVAAISYRGGGTNYADSVKGRFTISRDNAKNTVYLQMNSLKPEDTAVYYCNARSGSSKSGYYNWGQGTQVTVSS | high polyreactivity
7 | QVHLVESGGGLVQAGGSLRLSCAASGRIFGYYAMGWYRQAPGKERELVAAISYSTGGTSTYADSVKGRFTISRDNAKNTVYLQMNSLKPEDTAVYYCAVRRQYRRAYSFSQSRYDYWGQGTQVTVSS | high polyreactivity
8 | QVHLVESGGGLVQAGGSLRLSCPASGRIFYYYTMGCYRQAPGKERELVAAITSGGSTYYADSVKGRFTISRDNAKNTVYLQMYSLKQEDTAVYYCIAEFDEKYDYWGQGTQVTVSS | low polyreactivity
9 | QVQLVESGGGLVQAGGSLRLSCAASGLIYSAYAMGWYRQAPGKEREFVAAISRSGGITFYADSVKGRFTISRDNAKNTVYLQMNSLKPEDTAVYYCAARRSKYRRGGGYYWGQGTQVTVSS | high polyreactivity
10 | QVQLVESGGGLVQAGGSLRLSCAASGRTLRTYAMGWYRQAPGKERELVAAITSSGGRTYYADSVKGRFTISRDNAKNTVYLQMNSLKPEDTAVYYCAAARYYYGGDYWGQGTQVTVSS | high polyreactivity
11 | QVQLVESAGGLVQAGGSLRLSCAASGFIFSRNAMGWYRQAPGKERELVAAISGTGGRTYYADSVKGRFTLSRDNAKNTVYLQMNSLKTEDTAVYYCAADKRIGGFGYWGQGTQVTVSS | high polyreactivity
12 | QVQLVESGGGLVQAGGSLRLSCAASGRTLARNAMGWYRQAPGKEREFVASINGRTTRTYYADSVKGRFTISRDNAKNTVYLQMNSLKPEDTAVYYCAADPPGYVYGKRYYWGQGTQVTVSS | high polyreactivity
13 | QVQLVESGGGLVQAGGSLRLSCAASGSIFTYYAMGWYRQATRKERELLADIRWSVGSTYYADSVKGRFTISRDNAKNTVYLQMNSLKPEDTAVYYCNAVVYIYYLTSYKYGNDSWGQGTQVTVSS | low polyreactivity
14 | QVQLEESGGGLVQAGGSLRLSCAASGRTFIKYAMGWYRQAPVNESELVAAITYSAGSTSYADSVKGRFTISRDNAKNTVYLQMNSRKPVDTAVYYCARRTRSYGYRSDYYYWGQGTQVTVSS | low polyreactivity
15 | QVQLVESGGGLVQAGGSLRLSCAASGRIFGYYAMGWYRQAPGKERELVAASTSSDASTYYADSVKGRFTISRDNAKNTDYLQMNSLKPEDTAVYYCNADYPTWSYYLSGYYGYWGQGTQVTVSS | low polyreactivity
16 | QVQLVQSAGGLVQAGGSLRLSCAASGSILSINGMGSYRQAPGKERELVATIDGSDGSTFYADSVKGRLTISRDNAKNTVYFQMNSLKPEDTAVYYCAAENLWQTKEYDYWGLGTQVTVSS | low polyreactivity
17 | QVQLVESGGGLVQAGGSLRLSCAASGSIFGYNAMGWYRQAPGKEREFVASIRYRGGSTYYADSVKGRFTISRDNAKNTVYLQMNSLKPEDTAVYYSAAYWWGVSKRQYGYWGQGTQVTVSS | high polyreactivity
18 | QVQLVESGGGLVQAGGRLRLSCAASGSIFVGYAMGWYRQAPGKERELVAAISTRGGSTYYAHSVKGRFTISRDNAKNTVYLQMNSLKPEDTAVYYSAADYLDSTYGYVYGWDDYWGQGTQVTVST | low polyreactivity
19 | QVQLVESGGGLVQAGGSLRLSCAASGNTSAVYAMGWYRQAPGKERELVASITWSDGITYYADSVKGRFTISRDNAKNTVYLQMNSLKPEDTAVYYCAKSTLYSVEYDYWGEGTQVTVSS | low polyreactivity
20 | QVQLVESGGGLVQAGGSLRLSWAASGFTFDSNAMGWSRPAPGKEREVVAAISWSGASTYADSVKGRFTISRDNAKNTVYLQMNSLKPEDTAVYYCAADDEDVLFDYWGQGTQVTVSS | low polyreactivity
21 | QVQLVESGGGLVQAGGSLRLSCAASGFIFDYYAMGWYRQAPGKERELVAAITSRGGSTYYADSVKGRFTISRDNAKNTVYLQMNSLKPEDTAVYYCAARRRYAEYNYWGQGTQVTVSS | high polyreactivity
22 | QFQLVESGGGLVQAGGSLRLSCAASGRTFVYYVMGWYRPAPGKERELVAAISRRGGSTYYADSVKGRFTISRDNAKNTVYLQMNSLKPEDTAVYYCAAQYYYAREDYWGQGTQVTVSS | high polyreactivity

Row | Sequence | polyreactivity (PSR sort gate)
23 | QVQLVESGGGLVQAGGSLRLSCAASGSIFRTYAMGWYRQAPGKERELVAAITSGGSTYYADSVKGRFTISRDNAKNTVYLQMNSLKPEDTAVYYCAAVRYYRYWYYWGQGTQVTVSS | high polyreactivity
24 | QVQLVESGGGLVQAGGSLRLSCAASGSIFYAYAMRWYRQAPGKERELVAVINSGGSTYYADSVKGRFTISRDNAKNTVYLQMHSLKPEDTAVYYCNATQDRGKYDYPPRGRGYYYWGQGTQVTVSS | high polyreactivity
25 | QVQLVESCGGLVQAGGSLRLSCAASGFTFYLYAMGWYRQAPGQERELVAAISSRGGTTYYADSVKGRFTISRDNAKNTVYLQMNSLKPEDTAVYYCNVARFYHIYDYWGQGTQVTVSS | high polyreactivity
26 | QVQLVESGGGLVQAGGRLRLSCAASVRIFRVYAMGWYRQEPGKERELVAAISWSGGRTYYADSVKGRFTISRDNAKNTVYLQMNSLKPEHTAVYYCAAVSGYALGYDYWGQGTQVTVSS | high polyreactivity
27 | QVQLVESGGGLVQAGGSLRLSCAASGRTFGFYTMGCYRQAPGKERELVAAISWRGGSTYYADSVKGRFTISRDNAKNTVYLQMYSLKPEDTAVYYCAVRTNFGKMYYWGQGTQVTVSS | high polyreactivity
28 | QVQLVESGGGLVQAGGSLRLSCAASGSIFRPNAMGWYRQAPGKERELVAAITWSGDSTYYADSVKGRFTISRDNAKNTVYLQMNSLKPEDTADYYCAADFTYQGSSANDYWGQGTQVTVSS | low polyreactivity
29 | QVQLVESGGGLVNAGGTLRLSCAASGSTFYRNAMGWYRQAPGKERELVATITYSGGSTYYADSVKGRFTNSRDNAKNTVYLQMNSLKPEDTAVYYCAVRRLRRNFVSYYYWGQGTQVTVSS | high polyreactivity
30 | QDQLVESGGGIVQAGGSLRLSCAASGFIFYTYAMGCYRQAPGKESELVAAISSRGTRTYYADSVKGRFTISRDNAKNTVFLQMNSLKPEDTAVYYCAAVSYSYEYPSFDMGYWGQGTQVTVSS | high polyreactivity
31 | QVQLVESGGGLVQAGGSLRLRCAASGRTFRYYAMGWYRQAPGKEREVVAAITRSGGSTYYADSVKGRFTISRDNAKNTVYLQMNSLKPEDTAVYYCAASRFTSYGIDYDYCGQGTQVTVSS | high polyreactivity
32 | QVQLVESGGGLVQAGGSLRLSCAASGSTLSFNAMGWYRQAPGKERELVAGITYSGGSTYYADYVKGRFTISRDNAKNTVYLQMNSLKPEDTAVYYCNKASGVYYGHLDYWGQGTQVTVSS | low polyreactivity
33 | QVQLVESGGGLVQAGGSLRLSCAASGSIFSGYAMGWYRQAPGKESELVAAISGSGGSTFYADSVKGRFTISRDNAKNTVYLQMISLKPEDTAVYYCAARRIAPFGRYDYWGQGTQVTVSS | low polyreactivity
34 | QVQLLESGGGLDQAGGSLRLSCAAYGRIFGPNAMGWYRQAPGKERELVAAISWSGGTTRYADSVKGRFTISRDNAKNSVYLQMNSQKPEDTAVYYCAASADDRRSGKRYDSWGHGTQVTVSS | high polyreactivity
35 | QVQLVESGGGLVQAGGSLRLSCAASGSTFTYYAMGWSRQAPGKERELVAVINKSGGRTNYADSVKGRFTISRDNPKNTVYLQMNSLKPEDTAVYYCNAYYTSFYTGDDYWGQGTQVTVSS | high polyreactivity
36 | QVQLVESGGGLVHAGGSLSLSCAASGRTFTSNAMGWYRQAPGKERELVATINGGVSTYYADSVKGRFTISRDNAKNTVYLQMNSLKPEDTAVYYCARDAYDADPSLWYYTYDYWGQGTQVTVSS | low polyreactivity
37 | QVQLVESGGGLVQAGGSLRLSCGASGRTFSYYPMGWYRQAPGKERELVAAITSSGGRTYYADSVKGRFTISRDNAKNTVYLQMNSLKPEDTAVYYCAKELVKRYYWGQGTQVTVSS | high polyreactivity
38 | QVQLVESGGGLVQEGGSLRLSCAASGSIFTLYFMGWYRQAPGKERELVAAITWSGGSTYYADSVKGRFTISRDNAKNTVYLQMNSLKTEVTAVYYCNADVRWDSQDYYYWGQGTQVTVSS | low polyreactivity
39 | QVQLVESGGGLVQAGGSLRLSCAASGSIFPFYAMGWYRQAPGKERELVAAITYSGGSTFYADSVKGRFTISRDNAKNTVYLQMNSLKPEDTAVYYCNAVWRFGSSKYYYWGHGTQVTVSS | high polyreactivity
40 | QVQLVESGGGLVQAGGSLRLSGAASGSTCYFNAQGWFRPAPGKERELVAAITYSGGSTYYADSVKGRFTISRDNAKNTVYLQLNSLKPEDTAVYYCAAQWRRHSTRSRYYYWGQGTQVTVSS | high polyreactivity
41 | QVQLVESGGGLVQAGGSLRLSCAASGFTFETNAMGWYRQEPGQERELVAAISYSGGSTYYADSVKGRFTISRDNAKNTVYLQMNSLKPEDNAVYYCNKYYRGIFKAHRDYWGQGTQVTVSS | low polyreactivity
42 | QVQLVESGGGLVQAGGSLRLICAASGGIFWYYAMGWYRQAPGKERELVATISSGGSTKYADSVKGRFTISRDNAKNTVYLQMNSLKPEDTAVYYCNKVFPNLYIYVVRGLIEMDYWGQGTQVTVSS | low polyreactivity
43 | QVQLVQSGGGLVQAGGSLRLSCAASGSTFLSKAMGWYRQAPWKERQLVAAITTSGTSTFYADSVKGRFTISRDNAKNTVYLQMNSLKPADTAVYCAKDYLPYLHFVAPSTGDYDYWGQGTQVTVSS | low polyreactivity
